Experimental data: paper PMC3825029 (Journal of immunology (Baltimore, Md. : 1950), 2013)
Blank lines part the entries; values can stand above or below the molecule they belong to.

Tests used:
[1] = target: C3b; assay: SPR
[2] = target: C3dg (UniProt P01024 955-1303); assay: SPR
C3dg, sequence (P01024 955-1303): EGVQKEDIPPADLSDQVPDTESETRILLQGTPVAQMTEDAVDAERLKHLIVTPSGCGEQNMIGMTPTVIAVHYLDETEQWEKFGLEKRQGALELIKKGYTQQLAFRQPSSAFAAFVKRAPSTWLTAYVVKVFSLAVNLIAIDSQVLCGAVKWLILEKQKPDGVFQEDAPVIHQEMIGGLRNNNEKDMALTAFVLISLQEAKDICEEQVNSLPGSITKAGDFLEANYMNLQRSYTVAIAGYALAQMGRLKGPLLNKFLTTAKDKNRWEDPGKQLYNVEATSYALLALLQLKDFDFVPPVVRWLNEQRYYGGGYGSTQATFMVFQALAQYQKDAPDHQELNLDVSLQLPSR

Kd [1]: 1000 nM
Molecule: factor H (from UniProt P08603 19-1231) (natural protein)

Kd [1]: 1000 nM
Molecule: mini-FH (from UniProt P08603 1-264; P08603 1107-1231) (designed binder)

binding result [2]: binds
B1: FH19-20 (domain or fragment, human)
chain: GKCGPPPPIDNGDITSFPLSVYAPASSVEYQCQNLYQLEGNKRITCRNGQWSEPPKCLHPCVISREIMENYNIALRWTAKQKLYSRTGESVEFVCKRGYRLSSRSHTLRTTCWDGKLEYPTCAKR
